Assays:
[1] = target: His-PrsA truncated mutant D3 (amino acids 1 to 146 and 251 to 320; PPIase domain deleted) (S. aureus HG001); experiment: cross-linking; E. coli BL21(DE3) cells expressing His-PrsA, D3 or D4 treated with 1% formaldehyde, 5 min, room temperature, 0.1 M sodium phosphate pH 6.8; His-tagged proteins purified on Ni-NTA; SDS-PAGE after 37 °C or 95 °C, Coomassie, immunoblot, LC-MS/MS of bands
[2] = target: protein A (SpA) on the surface of S. aureus HG001 (S. aureus (endogenous in HG001)) (UniProt P02976); experiment: flow cytometry on cells; about 10^5 CFU S. aureus HG001 (also HG001ΔprsA and HG001ΔprsA(pGHL-PrsA)) in 2% BSA-PBS incubated with mouse IgG at 37 °C for 30 min, then FITC-conjugated anti-mouse IgG at 4 °C for 30 min; percent bound relative to the unstained population
[3] = target: full-length His-tagged PrsA (amino acid 1 to 320) (S. aureus HG001); experiment: cross-linking; E. coli BL21(DE3) cells expressing His-PrsA, D3 or D4 treated with 1% formaldehyde, 5 min, room temperature, 0.1 M sodium phosphate pH 6.8; His-tagged proteins purified on Ni-NTA; SDS-PAGE after 37 °C or 95 °C, Coomassie, immunoblot, LC-MS/MS of bands

Chain of UniProt P02976 (P02976 37-485): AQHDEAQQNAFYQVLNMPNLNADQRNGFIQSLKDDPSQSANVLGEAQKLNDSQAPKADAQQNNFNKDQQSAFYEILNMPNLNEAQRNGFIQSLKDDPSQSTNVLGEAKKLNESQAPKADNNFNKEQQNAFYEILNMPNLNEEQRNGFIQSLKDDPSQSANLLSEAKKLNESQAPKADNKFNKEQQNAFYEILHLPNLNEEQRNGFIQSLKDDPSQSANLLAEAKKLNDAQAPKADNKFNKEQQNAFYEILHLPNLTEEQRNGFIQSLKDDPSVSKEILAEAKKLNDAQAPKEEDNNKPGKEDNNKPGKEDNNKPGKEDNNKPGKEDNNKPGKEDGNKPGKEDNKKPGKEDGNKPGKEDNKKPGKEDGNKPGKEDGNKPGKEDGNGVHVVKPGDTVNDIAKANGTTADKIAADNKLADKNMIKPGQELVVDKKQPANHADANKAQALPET

Question: For “His-PrsA truncated mutant D3 (amino acids 1 to 146 and 251 to 320; PPIase domain deleted) (domain or fragment)”, which stoichiometry N [1] is on record?
Answer: 2

Question: mouse immunoglobulin IgG was tested. Which percent of S. aureus binding to IgG [2] did it give?
Answer: 41.8%

Question: How did the stoichiometry N [3] turn out when “full-length His-tagged PrsA (amino acid 1 to 320) (natural protein)” was run?
Answer: 2

From paper PMC10986000
